# B1: FD 5D (antibody, V domains shown)
# VH: EVQLVESGGGLVQPGGSLRLSCAASGFTFSSYSMNWVRQAPGKGLEWVSYISSSSSTIYYADPVKGRFTISRDNAKNSLYLQMNSLRAEDTAVYYCASPGGITAAGTSVLFGYYGMDVWGQGTMVTVSS
# VL: not shown
# B2: FI 3A (antibody, V domains shown)
# VH: EVQLLESGGGLIQPGGSLRLSCAASGFTVSSNYMSWVRQAPGKGLEWVSVIYSGGSTYYADSVKGRFTISRDNSKNTLYLQMNSLRAEDTAVYYCARDHVRPGMNIWGQGTMVTVSS
# VL: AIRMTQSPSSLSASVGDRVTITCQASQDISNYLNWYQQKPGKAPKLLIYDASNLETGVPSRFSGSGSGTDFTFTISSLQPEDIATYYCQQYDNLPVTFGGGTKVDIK
# B3: FD 11A (antibody, V domains shown)
# VH: EVQLVESGGGVVQPGRSLRLSCAASGFTFSSYGMHWVRQAPGKGLEWVAVIWYDGSNKYYADSVKGRFTISRDNSKNTLYLQMNSLRAEDTAVYYCAKGPDILTGYYNYYYYGMDVWGQGTMVTVSS
# VL: QSVLTQPPSVSGAPGQRVTISCTGSSSNIGAGYDVHWYQQLPGTAPKLLIYGNSNRPSGVPDRFSGSKSGTSASLAITGLQAEDEADYYCQSYDSSLSGFYVVFGGGTKLTVL
# B4: FI 1C (antibody, V domains shown)
# VH: EVQLVESGGGLVKPGGSLRLSCAASGFTFSDYYMSWIRQAPGKGLEWVSYISSSGSTIYYADSVKGRFTISRDNAKNSLYLQMNSLRAEDTAVYYCARRSNRFLIAFDIWGQGTMVTVSS
# VL: QSALTQPASVSGSPGQTITISCTGTSSDVGGYNYVSWYQQHPGKAPKLMIYEVSNRPSGVSNRFSGSKSGNTASLTISGLQAEDEADYYCSSYTSSSTLVVFGGGTKLTVP
# B5: EY 6A (antibody, V domains shown)
# VH: EVQLVESGGGVVQPGRSLRLSCAASAFTFSSYDMHWVRQAPGKGLEWVAVISYDGSNKYYADSVKGRFTISRDNSKNTLYLQMNSLRAEDTAVYYCAKDGGKLWVYYFDYWGQGTLVTVSS
# VL: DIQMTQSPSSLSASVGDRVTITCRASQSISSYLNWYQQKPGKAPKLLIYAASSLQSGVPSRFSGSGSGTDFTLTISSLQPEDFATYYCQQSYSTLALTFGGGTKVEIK
# Molecular target: RBD-6H (340-538; NITN.GPKK), biotinylated (SARS-CoV-2)
# Test: not given
row,Binder,IC50 [nM]
1,B1,34
2,B2,8
3,B3,164
4,B4,109
5,B5,189

# Molecular target: RBD-VLP (Spycatcher-mi3 VLP-particles conjugated with Spytagged-RBD recombinant protein) (SARS-CoV-2)
# Test: ELISA
row,Binder,IC50 [nM]
1,B2,3
2,B4,3

# Source: article PMC8130932 (2021)
